Target: the molecule itself
Test: solution-state diffusion-ordered NMR spectroscopy

B1: isolated cytoplasmic (soluble) C-terminal domain of CzcD (CzcD_(209-316)) (domain or fragment, Cupriavidus metallidurans CH34, UniProt P13512 209-316, looked up)
chain: EGVPDDVDLAEVEKQILATPGVKSFHDLHIWALTSGKASLTVHVVNDTAVNPEMEVLPELKQMLADKFDITHVTIQFELAPCEQADAAQHFNASPALVGSKSLAAGGN
- stoichiometry N: 2
